Reference: patent US20060251652A1 (APPLIED MOLECULAR EVOLUTION, published 2006)

Molecular target: T1, human CD20 (human, UniProt P11836 1-297)
T1 construct: whole, on cells; Always presented on cells (fixed Ramos cells in ELISA; live cells in flow cytometry and KinExA-type assays); also called hCD20; Bp35
T1 sequence (looked up): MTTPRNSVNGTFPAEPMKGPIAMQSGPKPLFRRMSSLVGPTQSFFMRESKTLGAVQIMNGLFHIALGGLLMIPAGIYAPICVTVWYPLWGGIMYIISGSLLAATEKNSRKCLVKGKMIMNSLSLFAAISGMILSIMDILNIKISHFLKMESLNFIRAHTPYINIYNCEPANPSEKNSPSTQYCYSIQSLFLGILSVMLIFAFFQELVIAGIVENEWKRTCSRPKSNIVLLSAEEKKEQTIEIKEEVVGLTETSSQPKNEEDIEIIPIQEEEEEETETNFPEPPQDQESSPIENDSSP
Test: ELISA on formalin-fixed Ramos cells, off-rate format: after the Fab incubation the plate stood overnight in PBS/BSA before anti-His6 peroxidase, OD 450
Description: Ramos cells (ATCC) were grown in RPMI 1640 containing 10% heat inactivated Fetal Bovine Serum. […] Media was gently aspirated and […] of aqueous buffered zinc formalin (Anatech, Ltd.) was added to each well for 15 minutes at room temperature. Z-fix was removed and the plate was washed with phosphate-buffered saline (PBS) containing 0.05% Tween 20. The plate was blocked for 1 hour with 1% bovine serum albumin (BSA) in PBS. Dilutions of Fab or IgG were incubated with the fixed and blocked Ramos cells for 1 hour at room temperature. The plate was washed 3× with PBS 0.05% Tween […] of anti-His6 Peroxidase Mouse Monoclonal Antibody (Roche Diagnostics Corporation) at a 1:500 dilution were added to the wells and incubated 1 hour at room temperature. The plate was washed as above and developed with tetramethyl benzidine, and the reaction was stopped with 5N H₂SO₄. The plate absorbance was read at OD 450 nm. Dilutions of Fab and conjugate were in 1% BSA/PBS.
IgG assays were performed similarly except IgG bound was detected with goat anti-human IgG-HRP. To compare antibody off-rate, after incubation with Fab or IgG the plates were incubated over night in PBS/BSA, before proceeding with the second antibody step. To compare antibody on-rate, incubation steps for Fab/IgG binding and with the second antibody were both of 5 minutes duration.

- EC50 (read off the curve): ~0.3 µg/mL
B1: AME 33 Fab (Fab, V domains shown)
VH: EVQLVQSGAEVKKPGESLKISCKGSGRTFTSYNMHWVRQMPGKGLEWMGAIYPLTGDTSYNQKSKLQVTISADKSISTAYLQWSSLKASDTAMYYCARSTYVGGDWQFDVWGKGTTVTVSS
VL: EIVLTQSPGTLSLSPGERATLSCRASSSVPYIHWYQQKPGQAPRLLIYATSALASGIPDRFSGSGSGTDFTLTISRLEPEDFAVYYCQQWLSNPPTFGQGTKLEIK
notes: Fab
